# Like-named read-outs stand apart in the source and are kept apart here.
# Assays:
# [1] = molecular target: RSV-F protein of RSV A2 virus (as carried by the live virus in the neutralisation assay) (human respiratory syncytial virus, strain A2) (UniProt P03420); assay: cell-based or functional assay
# [2] = molecular target: RSV-F protein of RSV B9320 virus (as carried by the live virus in the neutralisation assay) (human respiratory syncytial virus, strain B9320); assay: cell-based or functional assay
# [3] = molecular target: RSV-F protein of RSV A Long virus (as carried by the live virus in the neutralisation assay) (human respiratory syncytial virus, strain A Long) (UniProt P12568); assay: cell-based or functional assay
# [4] = molecular target: recombinant RSV-F protein (RSV A2 strain fusion (F) protein with added His tag) (human respiratory syncytial virus, A2 strain) (UniProt P03420); assay: SPR (Biacore), antibody captured, RSV-F as analyte; column head prints nM, Kd/Ka gives M
# [5] = molecular target: recombinant RSV-F protein (RSV A2 strain fusion (F) protein with added His tag) (human respiratory syncytial virus, A2 strain) (UniProt P03420); assay: SPR (Biacore), antibody captured, RSV-F as analyte
# [6] = molecular target: RSV-F protein of RSV A2 virus (as carried by the live virus in the neutralisation assay) (human respiratory syncytial virus, strain A2) (UniProt P03420); assay: cell-based or functional assay; remark: listed apart in the source
# [7] = molecular target: RSV-F protein of RSV B9320 virus (as carried by the live virus in the neutralisation assay) (human respiratory syncytial virus, strain B9320); assay: cell-based or functional assay; remark: listed apart in the source
# [8] = molecular target: RSV-F protein of RSV A Long virus (as carried by the live virus in the neutralisation assay) (human respiratory syncytial virus, strain A Long) (UniProt P12568); assay: cell-based or functional assay; remark: listed apart in the source
# Chain of RSV-F protein of RSV A2 virus (as carried by the live virus in the neutralisation assay) (human respiratory syncytial virus, strain A2) (P03420 26-574): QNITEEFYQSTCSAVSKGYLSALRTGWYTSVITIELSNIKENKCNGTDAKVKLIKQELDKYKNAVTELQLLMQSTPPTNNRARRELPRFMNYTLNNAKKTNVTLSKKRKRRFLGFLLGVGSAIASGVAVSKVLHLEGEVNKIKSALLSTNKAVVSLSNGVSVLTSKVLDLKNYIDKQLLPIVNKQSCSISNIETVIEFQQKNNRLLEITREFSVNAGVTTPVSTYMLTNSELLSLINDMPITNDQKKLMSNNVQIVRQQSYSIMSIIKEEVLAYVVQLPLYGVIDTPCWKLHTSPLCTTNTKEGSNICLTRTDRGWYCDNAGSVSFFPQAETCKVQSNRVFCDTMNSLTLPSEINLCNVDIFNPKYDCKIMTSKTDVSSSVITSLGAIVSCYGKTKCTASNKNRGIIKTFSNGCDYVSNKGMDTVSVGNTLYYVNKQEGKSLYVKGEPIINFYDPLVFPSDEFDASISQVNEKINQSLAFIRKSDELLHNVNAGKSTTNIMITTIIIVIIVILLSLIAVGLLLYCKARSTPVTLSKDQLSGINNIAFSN
# Chain of recombinant RSV-F protein (RSV A2 strain fusion (F) protein with added His tag) (human respiratory syncytial virus, A2 strain) (P03420 26-109, chain 1 of 2): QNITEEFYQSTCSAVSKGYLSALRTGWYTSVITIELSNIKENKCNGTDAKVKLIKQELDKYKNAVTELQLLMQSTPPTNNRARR
# Chain of recombinant RSV-F protein (RSV A2 strain fusion (F) protein with added His tag) (human respiratory syncytial virus, A2 strain) (P03420 137-524, chain 2 of 2): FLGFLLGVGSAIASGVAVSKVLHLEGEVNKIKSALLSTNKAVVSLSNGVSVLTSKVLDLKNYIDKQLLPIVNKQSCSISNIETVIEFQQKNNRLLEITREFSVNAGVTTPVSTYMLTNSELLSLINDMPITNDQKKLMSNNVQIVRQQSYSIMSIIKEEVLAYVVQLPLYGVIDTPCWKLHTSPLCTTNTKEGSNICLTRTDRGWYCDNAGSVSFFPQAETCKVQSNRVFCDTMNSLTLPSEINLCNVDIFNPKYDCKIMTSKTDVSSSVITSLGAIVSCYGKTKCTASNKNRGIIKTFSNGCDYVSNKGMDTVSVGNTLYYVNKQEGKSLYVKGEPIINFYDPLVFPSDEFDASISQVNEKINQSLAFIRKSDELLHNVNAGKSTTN
substance,measurement,setting,value
Palivizumab (antibody),"Absolute IC50, neutralizing RSV A2 (HEp-2 cells, indirect ELISA)",[1],1.06 µg/mL
same,"Absolute IC50, neutralizing RSV B9320 (HEp-2 cells, indirect ELISA)",[2],1.07 µg/mL
same,"Absolute IC50, neutralizing RSV A Long (HEp-2 cells, indirect ELISA)",[3],0.232 µg/mL
same,Kd,[4],0.0628 nM
same,kon,[5],1.2e+06 M⁻¹ s⁻¹
same,"Absolute IC50, neutralizing RSV A2 (HEp-2 cells, indirect ELISA)",[6],3.04 µg/mL
same,"Absolute IC50, neutralizing RSV B9320 (HEp-2 cells, indirect ELISA)",[7],0.481 µg/mL
same,"Absolute IC50, neutralizing RSV A Long (HEp-2 cells, indirect ELISA)",[8],1.59 µg/mL

# — patent publication US20250026815A1
